Where a chain is given by its changes, count along the chain named. In names and notes the source's numbering stands.
B1: D155C: PYR1 mutant (protein, UniProt O49686 1-191, looked up, variant D155C)
Abscisic acid receptor PYR1: MPSELTPEERSELKNSIAEFHTYQLDPGSCSSLHAQRIHAPPELVWSIVRRFDKPQTYKHFIKSCSVEQNFEMRVGCTRDVIVISGLPANTSTERLDILDDERRVTGFSIIGGEHRLTNYKSVTTVHRFEKENRIWTVVLESYVVDMPEGNSEDCTRMFADTVVKLNLQKLATVAEAMARNSGDGSGSQVT
B2: T156D: PYR1 mutant (protein, UniProt O49686 1-191, looked up, variant T156D)
Abscisic acid receptor PYR1: B1 Abscisic acid receptor PYR1 with C155D, T156D
B3: T156N: PYR1 mutant (protein, UniProt O49686 1-191, looked up, variant T156N)
Abscisic acid receptor PYR1: B1 Abscisic acid receptor PYR1 with C155D, T156N
B4: T156K: PYR1 mutant (protein, UniProt O49686 1-191, looked up, variant T156K)
Abscisic acid receptor PYR1: B1 Abscisic acid receptor PYR1 with C155D, T156K
B5: D155F: PYR1 mutant (protein, UniProt O49686 1-191, looked up, variant D155F)
Abscisic acid receptor PYR1: B1 Abscisic acid receptor PYR1 with C155F
B6: D155Y: PYR1 mutant (protein, UniProt O49686 1-191, looked up, variant D155Y)
Abscisic acid receptor PYR1: B1 Abscisic acid receptor PYR1 with C155Y
B7: T156R: PYR1 mutant (protein, UniProt O49686 1-191, looked up, variant T156R)
Abscisic acid receptor PYR1: B1 Abscisic acid receptor PYR1 with C155D, T156R
B8: D155K: PYR1 mutant (protein, UniProt O49686 1-191, looked up, variant D155K)
Abscisic acid receptor PYR1: B1 Abscisic acid receptor PYR1 with C155K
B9: T156Y: PYR1 mutant (protein, UniProt O49686 1-191, looked up, variant T156Y)
Abscisic acid receptor PYR1: B1 Abscisic acid receptor PYR1 with C155D, T156Y
B10: T156G: PYR1 mutant (protein, UniProt O49686 1-191, looked up, variant T156G)
Abscisic acid receptor PYR1: B1 Abscisic acid receptor PYR1 with C155D, T156G
B11: F159E: PYR1 mutant (protein, UniProt O49686 1-191, looked up, variant F159E)
Abscisic acid receptor PYR1: B1 Abscisic acid receptor PYR1 with C155D, F159E
B12: T156H: PYR1 mutant (protein, UniProt O49686 1-191, looked up, variant T156H)
Abscisic acid receptor PYR1: B1 Abscisic acid receptor PYR1 with C155D, T156H
B13: F159N: PYR1 mutant (protein, UniProt O49686 1-191, looked up, variant F159N)
Abscisic acid receptor PYR1: B1 Abscisic acid receptor PYR1 with C155D, F159N
B14: T156P: PYR1 mutant (protein, listed as Arabidopsis thaliana)
chain: B1 Abscisic acid receptor PYR1 with C155D, T156P
B15: T156M: PYR1 mutant (protein, UniProt O49686 1-191, looked up, variant T156M)
Abscisic acid receptor PYR1: B1 Abscisic acid receptor PYR1 with C155D, T156M
B16: M158P: PYR1 mutant (protein, UniProt O49686 1-191, looked up, variant M158P)
Abscisic acid receptor PYR1: B1 Abscisic acid receptor PYR1 with C155D, M158P
B17: F159P: PYR1 mutant (protein, UniProt O49686 1-191, looked up, variant F159P)
Abscisic acid receptor PYR1: B1 Abscisic acid receptor PYR1 with C155D, F159P
B18: T156L: PYR1 mutant (protein, UniProt O49686 1-191, looked up, variant T156L)
Abscisic acid receptor PYR1: B1 Abscisic acid receptor PYR1 with C155D, T156L
B19: F159S: PYR1 mutant (protein, UniProt O49686 1-191, looked up, variant F159S)
Abscisic acid receptor PYR1: B1 Abscisic acid receptor PYR1 with C155D, F159S
B20: D155I: PYR1 mutant (protein, UniProt O49686 1-191, looked up, variant D155I)
Abscisic acid receptor PYR1: B1 Abscisic acid receptor PYR1 with C155I
B21: F159Q: PYR1 mutant (protein, UniProt O49686 1-191, looked up, variant F159Q)
Abscisic acid receptor PYR1: B1 Abscisic acid receptor PYR1 with C155D, F159Q
B22: F159W: PYR1 mutant (protein, UniProt O49686 1-191, looked up, variant F159W)
Abscisic acid receptor PYR1: B1 Abscisic acid receptor PYR1 with C155D, F159W
B23: T156Q: PYR1 mutant (protein, UniProt O49686 1-191, looked up, variant T156Q)
Abscisic acid receptor PYR1: B1 Abscisic acid receptor PYR1 with C155D, T156Q
B24: D155G: PYR1 mutant (protein, UniProt O49686 1-191, looked up, variant D155G)
Abscisic acid receptor PYR1: B1 Abscisic acid receptor PYR1 with C155G
B25: F159D: PYR1 mutant (protein, UniProt O49686 1-191, looked up, variant F159D)
Abscisic acid receptor PYR1: B1 Abscisic acid receptor PYR1 with C155D, F159D
B26: F159Y: PYR1 mutant (protein, UniProt O49686 1-191, looked up, variant F159Y)
Abscisic acid receptor PYR1: B1 Abscisic acid receptor PYR1 with C155D, F159Y
B27: T156E: PYR1 mutant (protein, UniProt O49686 1-191, looked up, variant T156E)
Abscisic acid receptor PYR1: B1 Abscisic acid receptor PYR1 with C155D, T156E
B28: T156W: PYR1 mutant (protein, UniProt O49686 1-191, looked up, variant T156W)
Abscisic acid receptor PYR1: B1 Abscisic acid receptor PYR1 with C155D, T156W
B29: F159R: PYR1 mutant (protein, UniProt O49686 1-191, looked up, variant F159R)
Abscisic acid receptor PYR1: B1 Abscisic acid receptor PYR1 with C155D, F159R
B30: T156I: PYR1 mutant (protein, UniProt O49686 1-191, looked up, variant T156I)
Abscisic acid receptor PYR1: B1 Abscisic acid receptor PYR1 with C155D, T156I
B31: T156F: PYR1 mutant (protein, UniProt O49686 1-191, looked up, variant T156F)
Abscisic acid receptor PYR1: B1 Abscisic acid receptor PYR1 with C155D, T156F

System: HAB1
Experiment: Yeast two hybrid of pBD-PYR1 site saturation mutants with pACT-HAB1 on 10 μM ABA, β-galactosidase staining
Assay type: cell-based, Arabidopsis
Set-up: key: x: Mutations in PYR1 that disrupt ABA-induced binding to PYR1 to HAB1
Details: S. cerevisiae Y190, 10 μM ABA; dead = lack of visible staining in comparison to wild type control
In short: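 S. cerevisiae Y190 co-expressing GAL4-DNA-binding-domain–PYR1 mutants and GAL4-activation-domain–HAB1 were spotted on SD (-Leu, -Trp) agar with 10 μM (+)-ABA for 2 days at 30° C. Colonies were chloroform-lysed and stained for β-galactosidase. Mutants lacking visible staining relative to wild type were scored as non-binding.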

| Molecule | Mutations in PYR1 that disrupt ABA-induced binding to PYR1 to HAB1 |
| --- | --- |
| B1 | x |
| B2 | x |
| B3 | x |
| B4 | x |
| B5 | x |
| B6 | x |
| B7 | x |
| B8 | x |
| B9 | x |
| B10 | x |
| B11 | x |
| B12 | x |
| B13 | x |
| B14 | x |
| B15 | x |
| B16 | x |

| Molecule | Mutations in PYR1 that disrupt ABA-induced binding to PYR1 to HAB1 |
| --- | --- |
| B17 | x |
| B18 | x |
| B19 | x |
| B20 | x |
| B21 | x |
| B22 | x |
| B23 | x |
| B24 | x |
| B25 | x |
| B26 | x |
| B27 | x |
| B28 | x |
| B29 | x |
| B30 | x |
| B31 | x |

— US10919943B2, “Mutant proteins enabling agrochemical control of plant gene expression” (The Regents of the University of California, priority 2016, dated 2021)
